# According to US20150118286A1 (ELIXIR INSTITUTE OF REGENERATIVE MEDICINE, published 2015):
# Molecular target: T1, Mushroom tyrosinase (mushroom, UniProt C7FF04 1-392)
# T1 construct: Bought enzyme preparation; also called monophenol monooxygenase (EC 1.14.18.1)
# Assay: enzyme kinetics on mushroom tyrosinase, Lineweaver-Burk / nonlinear regression, differs from Table 4
# Protocol: Tyrosinase inhibitory activity was determined in vitro using L-tyrosine or L-dopa as the substrate following a modified method from Piao, L. Z., Park, H. R., Park, Y. K., Lee, S. K., Park, J. H., and Park, M. K. (2002) Chem Pharm Bull (Tokyo) 50, 309-311. The concentration of enzyme, substrate and inhibitor was denoted as [E], [S] and [I], respectively. The experiment was conducted in a 96-well flat-bottomed plate. Each well contained 80 μl of 0.067 M potassium phosphate buffer (pH 6.8), 40 μl of 5 mg/ml L-tyrosine dissolved in 0.067 M potassium phosphate buffer (pH 6.8), 40 μl of the different concentrations of inhibitors dissolved in the same buffer, and 40 μl of 480 units/ml mushroom tyrosinase solution. The final volume of each well was 200 μl, containing 1 mg/ml [S], 96 units/ml [E] and varying concentrations of [I] ranging from 1 μM to 10 mM. For the negative control wells, the inhibitors were substituted with buffer solution and adjusted to the total volume of 200 μl. HQ served as a positive control to calibrate the assay as a wide range of IC₅₀ values has been previously reported (Neeley, E., Fritch, G., Fuller, A., Wolfe, J., Wright, J., and Flurkey, W. (2009) Int J Mol Sci 10, 3811-3823). The assay mixture was incubated at 37° C. The optical density of the reaction mixtures, which correlates with the amount of dopachrome produced, was measured at 475 nm using a Varioskan microplate reader (Thermo Electron Corporation, San Jose, Calif.) at different time periods. For assessment of the 2nd step of melanin synthesis, we used L-dopa as the substrate and freshly extracted human tyrosinase as previously described (Abu Ubeid, A., Zhao, L., Wang, Y., and Hantash, B. M. (2009) J Invest Dermatol 129, 2242-2249).
# The kinetics and mode of inhibition for P16-18 (SEQ ID NO: 1, 2 and 3 respectively) and HQ was determined using a standard assay (Pomerantz, S. H. (1966) J Biol Chem 241, 161-168). As illustrated by Lineweaver-Burk plots shown in FIG. 3, the Vₘₐₓ was independent of […] for HQ and all 3 octapeptides, whereas the Kₘ was altered.
# T1 sequence (C7FF04 1-392): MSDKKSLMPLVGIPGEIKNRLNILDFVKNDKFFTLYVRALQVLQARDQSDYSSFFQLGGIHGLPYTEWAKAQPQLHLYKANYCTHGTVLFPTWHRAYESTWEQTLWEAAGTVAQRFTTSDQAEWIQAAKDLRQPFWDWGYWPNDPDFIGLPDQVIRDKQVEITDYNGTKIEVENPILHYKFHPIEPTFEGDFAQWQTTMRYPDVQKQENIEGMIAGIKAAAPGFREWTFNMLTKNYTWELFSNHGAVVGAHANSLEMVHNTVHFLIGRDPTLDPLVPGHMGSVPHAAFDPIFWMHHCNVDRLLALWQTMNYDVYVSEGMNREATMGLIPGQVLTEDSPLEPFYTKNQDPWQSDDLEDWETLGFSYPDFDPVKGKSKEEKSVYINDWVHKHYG
row,Binder,Ki
1,RRWWRRYY (Synthetic octapeptide) [P16 peptide],167 µM
2,RRYWYWRR (Synthetic octapeptide) [P18 peptide],179 µM
3,RRRYWYYR (Synthetic octapeptide) [P17 peptide],190 µM

# Molecular target: T1, Mushroom tyrosinase
# Assay: cell-based or functional assay
row,Binder,"IC50 [µM], mushroom tyrosinase inhibition (dopachrome OD 475 nm, L-tyrosine substrate)"
1,RRVAL [P13 peptide],2200 µM
2,RRWWRRYY (Synthetic octapeptide) [P16 peptide],238 µM
3,RRFVLL [P14 peptide],1770 µM
4,RRYWYWRR (Synthetic octapeptide) [P18 peptide],282 µM
5,RRRYWYYR (Synthetic octapeptide) [P17 peptide],398 µM
